Assay [1] has as its target T1, PRC2 (Homo sapiens, UniProt Q15910).
T1 construct: Mono Q fractions containing stoichiometric components of PRC2 were pooled; made in house; FLAG-M2 immunoprecipitation from nuclear extract, then Mono Q
Kind of assay: in vitro PRC2 histone methyltransferase reactions with H3 peptides added in trans. Conditions: for effect on PRC2 activity relative to the no peptide control: H3 peptides (18-37) in trans, purified wildtype mononucleosomes (FIG. 3A). The format is biochemical. Here is the method:
Human EED protein containing an N-terminal FLAG-epitope was cloned in pCDH-EF1alpha-IRES-Puro (System Biosciences). Resulting lentivirus were used to establish stable 293T and Hela cell lines that express FLAG-hEED. Nuclear extracts were prepared from washed cell pellets as previously described (Lewis et al., “Daxx is an H3.3-specific Histone Chaperone and Cooperates with ATRX in Replication-Independent Chromatin Assembly at Telomeres,” Proc Natl Acad Sci USA 107: 14075-14080 (2010), which is hereby incorporated by reference in its entirety). FLAG-M2 immunoprecipitation of clarified nuclear extract was performed, followed by washing (250 mM KCl) and elution with 3XFLAG peptide (400 ng/μL). Eluate from the FLAG M2 beads was loaded onto a Mono Q ion exchange column. Mono Q fractions containing stoichiometric components of PRC2 were pooled. HEK293T cells expressing epitope-tagged Histone H3 were hypotonically lysed. Washed nuclei were resuspended in micrococcal nuclease digestion buffer (20 mM HEPES, pH 7.9, 30 mM KCl, 2 mM CaCl2, 0.4 mM PMSF, 3× Protease Inhibitor Cocktail (Roche). Micrococcal nuclease (Worthingtons, 15 U/μL) was added to nuclei, followed by incubation at 30° C. for 5-30 minutes. Reactions were returned to ice, followed by addition of 3 mM EDTA, 3 mM EGTA, 120 mM NaCl, 0.1% Triton. Nuclei were dounced (Wheaton A×10), followed by centrifugation 15K rpm in SS34. FLAG M2 beads were incubated with clarified supernatant at 4° C. Washed beads (150 mM KCl) were eluted with 3× FLAG peptide ([…]). DNA from M2 FLAG eluate fractions was resolved by gel electrophoresis for estimation of chromatin lengths. Fractions of similar chromatin (DNA) lengths were pooled and dialyzed (20 mM HEPES, pH 7.9, 10 mM KCl, 10% Glycerol, 0.4 mM PMSF, 0.5 mM DTT). Purified PRC2, peptides, and chromatin substrates were added to reaction buffer (50 mM HEPES, pH 7.9, 0.5 mM DTT, 0.4 mM PMSF). Labeled S-adenosyl-methionine (3H-SAM) was added to reactions (225 μM), followed by incubation at 30° C. The reactions were stopped by binding to P81 filter paper (GE Health) for scintillitation counting, or the addition of SDS-PAGE for autoradiography.

In assay [2] the target is T1, PRC2. The experiment in a line: kinetic studies of PRC2 methyltransferase assays with varying mononucleosome substrate concentrations. The format is biochemical. Conditions: initial velocity versus nucleosome substrate concentration. Here is the method:
Purified PRC2, peptides, and chromatin substrates were added to reaction buffer (50 mM HEPES, pH 7.9, 0.5 mM DTT, 0.4 mM PMSF). Labeled S-adenosyl-methionine (3H-SAM) was added to reactions (225 μM), followed by incubation at 30° C. The reactions were stopped by binding to P81 filter paper (GE Health) for scintillitation counting, or the addition of SDS-PAGE for autoradiography.

T1 sequence (Q15910 whole entry): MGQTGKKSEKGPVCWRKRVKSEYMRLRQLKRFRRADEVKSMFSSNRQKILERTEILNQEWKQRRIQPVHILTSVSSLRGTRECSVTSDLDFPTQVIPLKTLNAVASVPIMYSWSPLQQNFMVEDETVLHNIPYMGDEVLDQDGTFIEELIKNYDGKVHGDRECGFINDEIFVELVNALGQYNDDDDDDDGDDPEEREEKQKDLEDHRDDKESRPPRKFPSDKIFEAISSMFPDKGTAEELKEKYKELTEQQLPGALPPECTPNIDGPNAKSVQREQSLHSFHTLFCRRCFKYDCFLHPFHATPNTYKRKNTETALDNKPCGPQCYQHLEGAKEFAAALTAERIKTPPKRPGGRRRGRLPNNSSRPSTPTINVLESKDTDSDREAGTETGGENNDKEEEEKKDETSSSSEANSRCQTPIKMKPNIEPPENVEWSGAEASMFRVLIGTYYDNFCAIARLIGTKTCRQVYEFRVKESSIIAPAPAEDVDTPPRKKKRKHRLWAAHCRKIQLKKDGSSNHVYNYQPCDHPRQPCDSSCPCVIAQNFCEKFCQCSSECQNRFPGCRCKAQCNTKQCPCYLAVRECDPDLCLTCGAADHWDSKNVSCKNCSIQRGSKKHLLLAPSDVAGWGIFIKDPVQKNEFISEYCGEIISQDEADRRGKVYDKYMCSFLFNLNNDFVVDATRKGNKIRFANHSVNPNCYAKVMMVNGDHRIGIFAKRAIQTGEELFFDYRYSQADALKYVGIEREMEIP
T1 sequence (O75530 whole entry partner): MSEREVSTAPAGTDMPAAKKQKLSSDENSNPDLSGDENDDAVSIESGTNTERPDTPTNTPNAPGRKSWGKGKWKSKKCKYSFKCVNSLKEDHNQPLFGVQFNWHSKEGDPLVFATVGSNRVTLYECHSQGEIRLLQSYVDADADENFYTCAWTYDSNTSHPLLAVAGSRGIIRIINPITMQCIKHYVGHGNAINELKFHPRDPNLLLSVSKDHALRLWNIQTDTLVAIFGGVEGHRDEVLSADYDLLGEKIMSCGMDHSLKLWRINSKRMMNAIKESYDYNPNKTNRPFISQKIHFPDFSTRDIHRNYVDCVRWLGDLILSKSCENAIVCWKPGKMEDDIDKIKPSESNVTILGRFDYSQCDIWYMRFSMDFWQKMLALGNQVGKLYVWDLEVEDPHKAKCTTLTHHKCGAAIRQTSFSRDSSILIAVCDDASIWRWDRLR
T1 sequence (Q15022 whole entry partner): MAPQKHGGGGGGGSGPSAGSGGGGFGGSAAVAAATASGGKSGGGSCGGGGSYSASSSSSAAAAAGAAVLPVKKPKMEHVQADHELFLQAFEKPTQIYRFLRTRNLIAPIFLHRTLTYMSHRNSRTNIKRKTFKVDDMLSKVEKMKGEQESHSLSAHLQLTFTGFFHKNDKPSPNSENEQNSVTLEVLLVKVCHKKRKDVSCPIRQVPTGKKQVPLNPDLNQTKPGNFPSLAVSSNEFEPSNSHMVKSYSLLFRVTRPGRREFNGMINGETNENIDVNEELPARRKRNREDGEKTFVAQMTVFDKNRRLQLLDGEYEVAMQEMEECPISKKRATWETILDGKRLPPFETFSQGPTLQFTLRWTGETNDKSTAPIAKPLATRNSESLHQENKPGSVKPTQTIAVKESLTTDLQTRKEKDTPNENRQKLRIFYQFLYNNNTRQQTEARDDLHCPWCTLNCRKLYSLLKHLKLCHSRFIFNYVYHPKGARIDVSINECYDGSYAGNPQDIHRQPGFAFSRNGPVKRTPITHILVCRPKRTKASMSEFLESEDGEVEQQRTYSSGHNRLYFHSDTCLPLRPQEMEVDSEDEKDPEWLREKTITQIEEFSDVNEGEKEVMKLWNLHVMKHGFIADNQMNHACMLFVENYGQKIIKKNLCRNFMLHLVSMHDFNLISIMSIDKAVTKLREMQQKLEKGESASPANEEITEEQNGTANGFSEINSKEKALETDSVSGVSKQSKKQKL
T1 sequence (Q09028 whole entry partner): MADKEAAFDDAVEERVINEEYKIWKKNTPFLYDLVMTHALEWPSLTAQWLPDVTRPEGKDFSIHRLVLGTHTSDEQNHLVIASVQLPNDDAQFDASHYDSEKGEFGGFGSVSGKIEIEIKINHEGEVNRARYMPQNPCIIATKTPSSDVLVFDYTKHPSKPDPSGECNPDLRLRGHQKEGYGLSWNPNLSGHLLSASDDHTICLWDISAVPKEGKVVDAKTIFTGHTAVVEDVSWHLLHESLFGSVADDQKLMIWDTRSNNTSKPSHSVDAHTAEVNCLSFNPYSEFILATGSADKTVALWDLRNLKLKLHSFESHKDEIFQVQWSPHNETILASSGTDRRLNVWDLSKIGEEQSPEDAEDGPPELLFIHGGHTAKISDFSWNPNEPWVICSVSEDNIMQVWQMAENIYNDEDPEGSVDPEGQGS

Consider “K27ac: H3 peptide (18-37) acetylated at K27”, for which the “change in PRC2 activity on titration against K27me3 peptide” value in assay [1] (9:1 ratio of K27ac:K27me3 peptide (FIG. 3D)) is recorded as “no decrease”. Further, the “effect on PRC2 activity relative to the no peptide control” value in assay [1] was “little stimulation”. Besides, in assay [1] (constant low K27me3 peptide (FIG. 3F)), the “effect on PRC2 activity on titration into reactions with constant low concentration of K27me3 peptide” value was “no decrease”. In addition, the “effect on apparent Vmax” value in assay [2] is recorded as “did not decrease”.

Turning to “K27me3: H3 peptide trimethylated at K27, allosteric activator of PRC2”, in assay [1] (10 or 100 μM peptide (FIG. 2C)), the “effect on PRC2 activity towards mononucleosome or oligonucleosome templates” value is “strongly stimulated”. For the same substance, in assay [1], the “effect on PRC2 activity relative to the no peptide control” value is recorded as “strongly stimulated”.

Take “Lys^27 replaced by Leu: H3 peptide (18-37) containing Lys27 replaced by Leu (KQLATKAARLSAPSTGGVKK)”: in assay [1] (50 or 100 μM H3 peptide (18-37), reconstituted nucleosomes (FIGS. 5B and 5C)), the “inhibitory effect on PRC2 in vitro” value was “no inhibitory effect”.

With “unmodified: unmodified H3 peptide (18-37)”, the “effect on PRC2 activity relative to the no peptide control” value in assay [1] is recorded as “little stimulation”.
